This note sets out measurements from the supplement of paper PMC5998384.

The test system of series [1] is HeLa Kyoto. As to the kind of experiment: solubility in G1/S (NP-40 vs SDS abundance) (log2 ratio); higher = more soluble. The settings on record: cell cycle stage: G1/S.
For series [2], the system named is HeLa Kyoto. The experiment in a line: solubility change mitosis vs G1/S (difference of NP-40 vs SDS log2 ratios) (log2 ratio difference); higher = more soluble in mitosis.
Series [3] deals with HeLa Kyoto. The experiment in a line: melting temperature (median over replicates), in situ; higher = more thermally stable.
In series [4] the test system is HeLa Kyoto. The experiment in a line: thermal stability score vs G1/S (z-score of summed log2 fold changes over temperatures); higher = more thermally stable than in G1/S.
Setting [5] is: cell cycle stage: early G1 (4.5 h after nocodazole release).
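Throughout, for melting temperature (median over replicates), in situ: HeLa Kyoto cells synchronized by double thymidine or nocodazole block, proteins quantified by TMT10plex mass spectrometry, three independent biological replicates.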
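Throughout, for solubility change mitosis vs G1/S (difference of NP-40 vs SDS log2 ratios): synchronized HeLa Kyoto cells (double thymidine block for G1/S, nocodazole release for mitosis), protein amounts in NP-40 versus SDS lysates quantified by mass spectrometry, three biological replicates.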
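Throughout, for solubility in G1/S (NP-40 vs SDS abundance): HeLa Kyoto cells arrested at G1/S by double thymidine block, proteins quantified by TMT10plex mass spectrometry in mild NP-40 versus SDS extracts, three biological replicates.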
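Throughout, for thermal stability score vs G1/S (z-score of summed log2 fold changes over temperatures): synchronized HeLa Kyoto cells, proteins quantified by TMT10plex mass spectrometry, three biological replicates, mitosis taken 0.5 h after nocodazole release, G1/S directly after double thymidine block.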

Turning to BIRC6, the “solubility in G1/S (log2)” value with HeLa Kyoto [1] is -0.141. Besides, the “solubility change mitosis (log2)” value in the series with HeLa Kyoto [2] was -0.125. The melting temperature in the series with HeLa Kyoto [3] (cell cycle stage: G1/S) was determined as 51.6 °C; in the series on HeLa Kyoto [3] (cell cycle stage: mitosis), 51.2 °C. The thermal stability score with HeLa Kyoto [4] (setting [5]) is -0.354; in the series with HeLa Kyoto [4] (cell cycle stage: mitosis) it was -0.341.

For the substance “MDALNRNQIGPGCQTQTMVQKGPLDLIETGKGLKVQTDKPHLVSLGSGRLSTAITLLPLEEGRTVIGSAARDISLQGPGLAPEHCYIENLRGTLTLYPCGNACTIDGLPVRQPTRLTQGCMLCLGQSTFLRFNHPAEAKWMKSMIPAGGRAPGPPYSPVPAESESLVNGNHTPQTATRGPSACASHSSLVSSIEKDLQEIMDSLVLEEPGAAGKKPAATSPLSPMANGGRYLLSPPTSPGAMSVGSSYENTSPAFSPLSSPASSGSCASHSPSGQEPGPSVPPLVPARSSSYHLALQPPQSRPSGARSESPRLSRKGGHERPPSPGLRGLLTDSPAATVLAEARRATESPRLGGQLPVVAISLSEYPASGALSQPTSIPGSPKFQPPVPAPRNKIGTLQDRPPSPFREPPGSERVLTTSPSRQLVGRTFSDGLATRTLQPPESPRLGRRGLDSMRELPPLSPSLSRRALSPLPTRTTPDPKLNREVAESPRPRRWAAHGASPEDFSLTLGARGRRTRSPSPTLGESLAPHKGSFSGRLSPAYSLGSLTGASPCQSPCVQRKLSSGDLRVPVTRERKNSITEISDNEDDLLEYHRRQRQERLREQEMERLERQRLETILNLCAEYSRADGGPEAGELPSIGEATAALALAGRRPSRGLAGASGRSSEEPGVATQRLWESMERSDEENLKEECSSTESTQQEHEDAPSTKLQGEVLALEEERAQVLGHVEQLKVRVKELEQQLQESAREAEMERALLQGEREAERALLQKEQKAVDQLQEKLVALETGIQKERDKEAEALETETKLFEDLEFQQLERESRVEEERELAGQGLLRSKAELLRSIAKRKERLAILDSQAGQIRAQAVQESERLARDKNASLQLLQKEKEKLTVLERRYHSLTGGRPFPKTTSTLKEMEKLLLPAVDLEQWYQELMAGLGTGPAAASPHSSPPPLPAKASRQLQVYRSKMDGEATSPLPRTRSGPLPSSSGSSSSSSQLSVATLGRSPSPKSALLTQNGTGSLPRNLAATLQDIETKRQLALQQKGQQVIEEQRRRLAELKQKAAAEAQCQWDALHGAAPFPAGPSGFPPLMHHSILHHLPAGRERGEEGEHAYDTLSLESSDSMETSISTGGNSACSPDNMSSASGLDMGKIEEMEKMLKEAHAEKNRLMESREREMELRRQALEEERRRREQVERRLQSESARRQQLVEKEVKMREKQFSQARPLTRYLPIRKEDFDLKTHIESSGHGVDTCLHVVLSSKVCRGYLVKMGGKIKSWKKRWFVFDRLKRTLSYYVDKHETKLKGVIYFQAIEEVYYDHLRSAAKKRFFRFTMVTESPNPALTFCVKTHDRLYYMVAPSAEAMRIWMDVIVTGAEGYTQFMN [PHLDB1]”, the “solubility in G1/S (log2)” value with HeLa Kyoto [1] is 0.0569. Also, the “solubility change mitosis (log2)” value in the series on HeLa Kyoto [2] is -0.13. For the same substance, the melting temperature in the series with HeLa Kyoto [3] (cell cycle stage: G1/S) is 50.8 °C; with HeLa Kyoto [3] (cell cycle stage: mitosis), 51.1 °C. Besides, the values for the thermal stability score in the series on HeLa Kyoto [4] (setting [5]) and in the series on HeLa Kyoto [4] (cell cycle stage: mitosis) were 0.702 and 1.01, respectively.

For the substance “MSTADALDDENTFKILVATDIHLGFMEKDAVRGNDTFVTLDEILRLAQENEVDFILLGGDLFHENKPSRKTLHTCLELLRKYCMGDRPVQFEILSDQSVNFGFSKFPWVNYQDGNLNISIPVFSIHGNHDDPTGADALCALDILSCAGFVNHFGRSMSVEKIDISPVLLQKGSTKIALYGLGSIPDERLYRMFVNKKVTMLRPKEDENSWFNLFVIHQNRSKHGSTNFIPEQFLDDFIDLVIWGHEHECKIAPTKNEQQLFYISQPGSSVVTSLSPGEAVKKHVGLLRIKGRKMNMHKIPLHTVRQFFMEDIVLANHPDIFNPDNPKVTQAIQSFCLEKIEEMLENAERERLGNSHQPEKPLVRLRVDYSGGFEPFSVLRFSQKFVDRVANPKDIIHFFRHREQKEKTGEEINFGKLITKPSEGTTLRVEDLVKQYFQTAEKNVQLSLLTERGMGEAVQEFVDKEEKDAIEELVKYQLEKTQRFLKERHIDALEDKIDEEVRRFRETRQKNTNEEDDEVREAMTRARALRSQSEESASAFSADDLMSIDLAEQMANDSDDSISAATNKGRGRGRGRRGGRGQNSASRGGSQRGRADTGLETSTRSRNSKTAVSASRNMSIIDAFKSTRQQPSRNVTTKNYSEVIEVDESDVEEDIFPTTSKTDQRWSSTSSSKIMSQSQVSKGVDFESSEDDDDDPFMNTSSLRRNRR [MRE11A]”, the “solubility in G1/S (log2)” value in the series with HeLa Kyoto [1] was -0.0431. Further, the “solubility change mitosis (log2)” value in the series with HeLa Kyoto [2] is -0.164. The results for the melting temperature in the series with HeLa Kyoto [3] (cell cycle stage: G1/S) and with HeLa Kyoto [3] (cell cycle stage: mitosis) were 51.6 °C and 51.2 °C, respectively. The thermal stability score was -0.294 with HeLa Kyoto [4] (setting [5]) and -0.527 with HeLa Kyoto [4] (cell cycle stage: mitosis).

For the substance “MTTSGALFPSLVPGSRGASNKYLVEFRAGKMSLKGTTVTPDKRKGLVYIQQTDDSLIHFCWKDRTSGNVEDDLIIFPDDCEFKRVPQCPSGRVYVLKFKAGSKRLFFWMQEPKTDQDEEHCRKVNEYLNNPPMPGALGASGSSGHELSALGGEGGLQSLLGNMSHSQLMQLIGPAGLGGLGGLGALTGPGLASLLGSSGPPGSSSSSSSRSQSAAVTPSSTTSSTRATPAPSAPAAASATSPSPAPSSGNGASTAASPTQPIQLSDLQSILATMNVPAGPAGGQQVDLASVLTPEIMAPILANADVQERLLPYLPSGESLPQTADEIQNTLTSPQFQQALGMFSAALASGQLGPLMCQFGLPAEAVEAANKGDVEAFAKAMQNNAKPEQKEGDTKDKKDEEEDMSLD [ADRM1]”, the “solubility in G1/S (log2)” value in the series on HeLa Kyoto [1] stood at 0.469. In the series on HeLa Kyoto [2], the “solubility change mitosis (log2)” value was -0.24. Further, the melting temperature came to 51.3 °C with HeLa Kyoto [3] (cell cycle stage: G1/S) and 51.1 °C with HeLa Kyoto [3] (cell cycle stage: mitosis). The thermal stability score in the series with HeLa Kyoto [4] (setting [5]) is 0.363; with HeLa Kyoto [4] (cell cycle stage: mitosis) it was -2.12.

As to “MATASPAADGGRGRPWEGGLVSWPPAPPLTLPWTWMGPSWGQHPGHWGFPALTEPSASPAAGLGIFEVRRVLDASGCSMLAPLQTGAARFSSYLLSRARKVLGSHLFSPCGVPEFCSISTRKLAAHGFGASMAAMVSFPPQRYHYFLVLDFEATCDKPQIHPQEIIEFPILKLNGRTMEIESTFHMYVQPVVHPQLTPFCTELTGIIQAMVDGQPSLQQVLERVDEWMAKEGLLDPNVKSIFVTCGDWDLKVMLPGQCQYLGLPVADYFKQWINLKKAYSFAMGCWPKNGLLDMNKGLSLQHIGRPHSGIDDCKNIANIMKTLAYRGFIFKQTSKPF [ERI3]”, in the series on HeLa Kyoto [1], the “solubility in G1/S (log2)” value was determined as 0.0291. Further, the “solubility change mitosis (log2)” value in the series on HeLa Kyoto [2] is -0.0837. The substance further displayed a melting temperature in the series on HeLa Kyoto [3] (cell cycle stage: mitosis) of 54.7 °C. Also, the thermal stability score was 0.384 with HeLa Kyoto [4] (setting [5]) and -0.0416 in the series with HeLa Kyoto [4] (cell cycle stage: mitosis).

Turning to “MSASAVYVLDLKGKVLICRNYRGDVDMSEVEHFMPILMEKEEEGMLSPILAHGGVRFMWIKHNNLYLVATSKKNACVSLVFSFLYKVVQVFSEYFKELEEESIRDNFVIIYELLDELMDFGYPQTTDSKILQEYITQEGHKLETGAPRPPATVTNAVSWRSEGIKYRKNEVFLDVIESVNLLVSANGNVLRSEIVGSIKMRVFLSGMPELRLGLNDKVLFDNTGRGKSKSVELEDVKFHQCVRLSRFENDRTISFIPPDGEFELMSYRLNTHVKPLIWIESVIEKHSHSRIEYMIKAKSQFKRRSTANNVEIHIPVPNDADSPKFKTTVGSVKWVPENSEIVWSIKSFPGGKEYLMRAHFGLPSVEAEDKEGKPPISVKFEIPYFTTSGIQVRYLKIIEKSGYQALPWVRYITQNGDYQLRTQ [AP1M1]”, in the series with HeLa Kyoto [1], the “solubility in G1/S (log2)” value is -0.0655. The “solubility change mitosis (log2)” value with HeLa Kyoto [2] was -0.209. In addition, the melting temperature with HeLa Kyoto [3] (cell cycle stage: G1/S) worked out at 50.8 °C; with HeLa Kyoto [3] (cell cycle stage: mitosis), 50.6 °C. Besides, the results for the thermal stability score with HeLa Kyoto [4] (setting [5]) and in the series on HeLa Kyoto [4] (cell cycle stage: mitosis) were -0.363 and -0.744, respectively.
